Results taken from paper PMC3946280, “Crystal Structures of the Novel Cytosolic 5′-Nucleotidase IIIB Explain Its Preference for m^7GMP” (PLoS ONE, 2014).
Values belong to the molecule of their own block, whether it stands above or below them.

How the values were obtained:
DmcN-IIIB [1] = target: T1, DmcN-IIIB (Drosophila melanogaster, UniProt Q9W197); assay: X-ray crystal structure, […] Å; type: binding; settings: co-crystallized, no MgF3− density; pH 7.5; active site
T1 construct: gene cN-IIIB; full length 1-319; His6-SUMO fusion from pET-SUMOadapt in E. coli Rosetta 2(DE3), tag cleaved (stated for crystallization)
T1 sequence (Q9W197 1-319): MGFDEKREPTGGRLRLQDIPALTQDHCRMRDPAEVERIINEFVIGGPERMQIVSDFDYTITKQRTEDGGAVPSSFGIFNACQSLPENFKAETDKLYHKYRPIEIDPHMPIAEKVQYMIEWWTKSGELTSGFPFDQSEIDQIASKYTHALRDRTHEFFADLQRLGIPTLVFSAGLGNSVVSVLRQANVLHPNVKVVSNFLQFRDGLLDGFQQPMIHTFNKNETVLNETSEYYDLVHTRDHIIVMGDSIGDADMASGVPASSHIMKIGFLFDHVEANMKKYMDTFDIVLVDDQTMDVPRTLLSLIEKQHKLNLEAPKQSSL

HscN-IIIA = target: T2, HscN-IIIA (Homo sapiens, UniProt Q9H0P0); settings: 37 °C; preincubated with 5 mM DTT
T2 construct: gene NT5C3A

DmcN-IIIB [2] = target: T1, DmcN-IIIB; assay: X-ray crystal structure, […] Å; type: binding; settings: co-crystallized with MgF3− and Mg2+; pH 7.5; active site
purified protein = substrate: Nc1ccn([C@@H]2O[C@H](COP(=O)(O)O)[C@@H](O)[C@H]2O)c(=O)n1; assay: purified protein; settings: 37 °C, preincubated with 5 mM DTT
[3] = substrate: C[n+]1cn([C@@H]2O[C@H](COP(=O)(O)O)[C@@H](O)[C@H]2O)c2nc(N)[nH]c(=O)c21; assay: colorimetric malachite green phosphate assay; type: biochemical, Homo sapiens; settings: 37 °C, preincubated with 5 mM DTT
[4] = substrate: C[n+]1cn([C@@H]2O[C@H](COP(=O)(O)O)[C@@H](O)[C@H]2O)c2nc(N)[nH]c(=O)c21; assay: colorimetric malachite green phosphate assay; type: biochemical, Drosophila melanogaster; settings: 25 °C
[5] = substrate: Nc1ccn([C@@H]2O[C@H](COP(=O)(O)O)[C@@H](O)[C@H]2O)c(=O)n1; assay: colorimetric malachite green phosphate assay; type: biochemical, Drosophila melanogaster; settings: 25 °C

Molecule: Nc1ccn([C@@H]2O[C@H](CO)[C@@H](O)[C@H]2O)c(=O)n1 [cytidine]
X-ray crystal structure, 2.05 Å (DmcN-IIIB [1]): crystal structures of ^DmcN-IIIB bound to 7-methylguanosine or cytidine have been deposited

Km (HscN-IIIA): 80 µM
Molecule: Nc1ccn([C@@H]2O[C@H](COP(=O)(O)O)[C@@H](O)[C@H]2O)c(=O)n1 [CMP]

Km (HscN-IIIA): 15 µM
Molecule: C[n+]1cn([C@@H]2O[C@H](COP(=O)(O)O)[C@@H](O)[C@H]2O)c2nc(N)[nH]c(=O)c21 [m^7GMP]

Molecule: C[n+]1cn([C@@H]2O[C@H](CO)[C@@H](O)[C@H]2O)c2nc(N)[nH]c(=O)c21 [7-methylguanosine]
X-ray crystal structure, 1.65 Å (DmcN-IIIB [2]): crystal structures of ^DmcN-IIIB bound to 7-methylguanosine or cytidine have been deposited

B1: HscN-IIIB (Homo sapiens) (protein)
chain: MAEEVSTLMKATVLMRQPGRVQEIVGALRKGGGDRLQVISDFDMTLSRFAYNGKRCPSSYNILDNSKIISEECRKELTALLHHYYPIEIDPHRTVKEKLPHMVEWWTKAHNLLCQQKIQKFQIAQVVRESNAMLREGYKTFFNTLYHNNIPLFIFSAGIGDILEEIIRQMKVFHPNIHIVSNYMDFNEDGFLQGFKGQLIHTYNKNSSACENSGYFQQLEGKTNVILLGDSIGDLTMADGVPGVQNILKIGFLNDKVEERRERYMDSYDIVLEKDETLDVVNGLLQHILCQGVQLEMQGP
Km (purified protein): 79 µM
kcat (purified protein): 7 s⁻¹
kcat/Km (purified protein): 87100 M⁻¹ s⁻¹
Km [3]: 8 µM
kcat [3]: 0.5 s⁻¹
kcat/Km [3]: 64500 M⁻¹ s⁻¹

B2: DmcN-IIIB (Drosophila melanogaster) (protein)
chain: MGFDEKREPTGGRLRLQDIPALTQDHCRMRDPAEVERIINEFVIGGPERMQIVSDFDYTITKQRTEDGGAVPSSFGIFNACQSLPENFKAETDKLYHKYRPIEIDPHMPIAEKVQYMIEWWTKSGELTSGFPFDQSEIDQIASKYTHALRDRTHEFFADLQRLGIPTLVFSAGLGNSVVSVLRQANVLHPNVKVVSNFLQFRDGLLDGFQQPMIHTFNKNETVLNETSEYYDLVHTRDHIIVMGDSIGDADMASGVPASSHIMKIGFLFDHVEANMKKYMDTFDIVLVDDQTMDVPRTLLSLIEKQHKLNLEAPKQSSL
notes: full length 1-319; His6-SUMO fusion from pET-SUMOadapt in E. coli Rosetta 2(DE3), tag cleaved (stated for crystallization)
Km [4]: 12 µM
kcat [4]: 4.8 s⁻¹
kcat/Km [4]: 403000 M⁻¹ s⁻¹
Km [5]: 48 µM
kcat [5]: 12 s⁻¹
kcat/Km [5]: 242000 M⁻¹ s⁻¹

B3: DmcN-IIIB (Drosophila melanogaster; G76N) (protein)
chain: MGFDEKREPTGGRLRLQDIPALTQDHCRMRDPAEVERIINEFVIGGPERMQIVSDFDYTITKQRTEDGGAVPSSFNIFNACQSLPENFKAETDKLYHKYRPIEIDPHMPIAEKVQYMIEWWTKSGELTSGFPFDQSEIDQIASKYTHALRDRTHEFFADLQRLGIPTLVFSAGLGNSVVSVLRQANVLHPNVKVVSNFLQFRDGLLDGFQQPMIHTFNKNETVLNETSEYYDLVHTRDHIIVMGDSIGDADMASGVPASSHIMKIGFLFDHVEANMKKYMDTFDIVLVDDQTMDVPRTLLSLIEKQHKLNLEAPKQSSL
notes: as for B2
Km ([4]; variant FNWW): 2 µM
kcat ([4]; variant FNWW): 1.1 s⁻¹
kcat/Km ([4]; variant FNWW): 545000 M⁻¹ s⁻¹
Km ([5]; variant FNWW): 51 µM
kcat ([5]; variant FNWW): 8 s⁻¹
kcat/Km ([5]; variant FNWW): 166000 M⁻¹ s⁻¹

B4: DmcN-IIIB (Drosophila melanogaster; F75H/G76N/W121Y) (protein)
chain: MGFDEKREPTGGRLRLQDIPALTQDHCRMRDPAEVERIINEFVIGGPERMQIVSDFDYTITKQRTEDGGAVPSSHNIFNACQSLPENFKAETDKLYHKYRPIEIDPHMPIAEKVQYMIEWYTKSGELTSGFPFDQSEIDQIASKYTHALRDRTHEFFADLQRLGIPTLVFSAGLGNSVVSVLRQANVLHPNVKVVSNFLQFRDGLLDGFQQPMIHTFNKNETVLNETSEYYDLVHTRDHIIVMGDSIGDADMASGVPASSHIMKIGFLFDHVEANMKKYMDTFDIVLVDDQTMDVPRTLLSLIEKQHKLNLEAPKQSSL
notes: as for B2
Km ([4]; variant HNWY): 11 µM
kcat ([4]; variant HNWY): 0.5 s⁻¹
kcat/Km ([4]; variant HNWY): 49500 M⁻¹ s⁻¹
Km ([5]; variant HNWY): 315 µM
kcat ([5]; variant HNWY): 9 s⁻¹
kcat/Km ([5]; variant HNWY): 28800 M⁻¹ s⁻¹

B5: DmcN-IIIB (Drosophila melanogaster; F75H) (protein)
chain: MGFDEKREPTGGRLRLQDIPALTQDHCRMRDPAEVERIINEFVIGGPERMQIVSDFDYTITKQRTEDGGAVPSSHGIFNACQSLPENFKAETDKLYHKYRPIEIDPHMPIAEKVQYMIEWWTKSGELTSGFPFDQSEIDQIASKYTHALRDRTHEFFADLQRLGIPTLVFSAGLGNSVVSVLRQANVLHPNVKVVSNFLQFRDGLLDGFQQPMIHTFNKNETVLNETSEYYDLVHTRDHIIVMGDSIGDADMASGVPASSHIMKIGFLFDHVEANMKKYMDTFDIVLVDDQTMDVPRTLLSLIEKQHKLNLEAPKQSSL
notes: as for B2
Km ([4]; variant HGWW): 40 µM
kcat ([4]; variant HGWW): 4.2 s⁻¹
kcat/Km ([4]; variant HGWW): 106000 M⁻¹ s⁻¹
Km ([5]; variant HGWW): 490 µM
kcat ([5]; variant HGWW): 8 s⁻¹
kcat/Km ([5]; variant HGWW): 16000 M⁻¹ s⁻¹

B6: DmcN-IIIB (Drosophila melanogaster; W121Y) (protein)
chain: MGFDEKREPTGGRLRLQDIPALTQDHCRMRDPAEVERIINEFVIGGPERMQIVSDFDYTITKQRTEDGGAVPSSFGIFNACQSLPENFKAETDKLYHKYRPIEIDPHMPIAEKVQYMIEWYTKSGELTSGFPFDQSEIDQIASKYTHALRDRTHEFFADLQRLGIPTLVFSAGLGNSVVSVLRQANVLHPNVKVVSNFLQFRDGLLDGFQQPMIHTFNKNETVLNETSEYYDLVHTRDHIIVMGDSIGDADMASGVPASSHIMKIGFLFDHVEANMKKYMDTFDIVLVDDQTMDVPRTLLSLIEKQHKLNLEAPKQSSL
notes: as for B2
Km ([5]; variant FGWY): 14 µM
kcat ([5]; variant FGWY): 6 s⁻¹
kcat/Km ([5]; variant FGWY): 410000 M⁻¹ s⁻¹

B7: DmcN-IIIB (Drosophila melanogaster; F75H/W121Y) (protein)
chain: MGFDEKREPTGGRLRLQDIPALTQDHCRMRDPAEVERIINEFVIGGPERMQIVSDFDYTITKQRTEDGGAVPSSHGIFNACQSLPENFKAETDKLYHKYRPIEIDPHMPIAEKVQYMIEWYTKSGELTSGFPFDQSEIDQIASKYTHALRDRTHEFFADLQRLGIPTLVFSAGLGNSVVSVLRQANVLHPNVKVVSNFLQFRDGLLDGFQQPMIHTFNKNETVLNETSEYYDLVHTRDHIIVMGDSIGDADMASGVPASSHIMKIGFLFDHVEANMKKYMDTFDIVLVDDQTMDVPRTLLSLIEKQHKLNLEAPKQSSL
notes: as for B2
Km ([4]; variant HGWY): 2 µM
kcat ([4]; variant HGWY): 1.5 s⁻¹
kcat/Km ([4]; variant HGWY): 755000 M⁻¹ s⁻¹
Km ([5]; variant HGWY): 93 µM
kcat ([5]; variant HGWY): 3 s⁻¹
kcat/Km ([5]; variant HGWY): 32500 M⁻¹ s⁻¹

B8: DmcN-IIIB (Drosophila melanogaster; G76N/W121Y) (protein)
chain: MGFDEKREPTGGRLRLQDIPALTQDHCRMRDPAEVERIINEFVIGGPERMQIVSDFDYTITKQRTEDGGAVPSSFNIFNACQSLPENFKAETDKLYHKYRPIEIDPHMPIAEKVQYMIEWYTKSGELTSGFPFDQSEIDQIASKYTHALRDRTHEFFADLQRLGIPTLVFSAGLGNSVVSVLRQANVLHPNVKVVSNFLQFRDGLLDGFQQPMIHTFNKNETVLNETSEYYDLVHTRDHIIVMGDSIGDADMASGVPASSHIMKIGFLFDHVEANMKKYMDTFDIVLVDDQTMDVPRTLLSLIEKQHKLNLEAPKQSSL
notes: as for B2
Km ([4]; variant FNWY): 8 µM
kcat ([4]; variant FNWY): 0.3 s⁻¹
kcat/Km ([4]; variant FNWY): 37800 M⁻¹ s⁻¹
